Holding throughout (assay type): physicochemical
Data set [1] can be described thus: Fluorescent properties of duplexes carrying fluorophores at the 3′-end. The note with it: oligonucleotide duplex carrying fluorophore at the 3′-end. The protocol: Solid supports carrying oligomers with L-threoninol and 3-aminopropan-1,2-diol backbones were introduced on a DNA synthesizer and oligonucleotides were assembled using standard protocols. After the assembly of the desired DNA sequence, supports were treated with concentrated ammonia at 55° C. for a minimum of 6 hrs yielding oligonucleotides carrying oligomers of fluorophores at the 3′-end.
Two oligonucleotide sequences were synthetized (sequence 1: 5′-[…]-3′ sequence 2: 5′-[…]-3′) carrying different fluorophores at the 3′-end. Solid supports containing dimer and trimer fluorophores (prepared in examples 28-31) and standard protocols for oligonucleotide synthesis were used in order to obtain these modified oligonucleotides (Table 2). Ammonia deprotection was performed at 55° C. for 6 hours. The resulting solutions were concentrated to dryness. Then, the residue was dissolved in water and desalted through a NAP-10 column. Fractions containing oligonucleotides were analysed by HPLC and characterized by UV and MS spectrometry.
Next, the fluorescent properties of duplexes carrying fluorophores at the 3′-end was determined and the results are shown in Table 3: […]

For a further data set, the system named is duplex structure of DNA. Kind of data set: Melting experiments (DNA-duplex stabilization). To be noted: 1 M NaCl, 10 mM sodium phosphate buffer of pH=7; for Tm(° C.): 260 nm, 1° C./min; for ΔTm (° C.): versus unmodified oligonucleotide. The protocol: Appropriate oligonucleotides were dissolved in a solution containing 1 M NaCl, 10 mM sodium phosphate buffer of pH=7. UV Absorption spectra and melting experiments (absorbance vs temperature) were recorded in 1-cm path length cell by using a spectrophotometer, with a temperature controller and a programmed temperature increase rate of 1° C./min. Melting curves were recorded at 260 nm, and melting temperatures were measured at the maximum of the first derivatives of the melting curves.

Data set [2] can be described thus: Fluorescence properties of the new compounds (excitation and emission wavelengths). The note with it: free compound.

From US20100129800A1, “POLYMERS AND THEIR USE AS FLUORESCENT LABELS” (priority 2007, published 2010) come the findings set out here.

Ends that are not written are not given here. Nct = N-((2S,3R)-1,3-dihydroxybutan-2-yl)-(4a,10a-dihydro-10,11-diazabenzo[b]fluoren-10-yl)acetamide monomer; Qut = N-(1,3-dihydroxybutan-2-yl)-10H-indolo[3,2-d]quinoline-11-carboxamide monomer; Pht = N-((2S,3R)-1,3-dihydroxybutan-2-yl)-2-phenylquinoline-4-carboxamide monomer; Act = N-(1,3-dihydroxybutan-2-yl)acridine-9-carboxamide monomer; code p = not defined here; Agt = not defined here; Qgt = not defined here

In the case of “TTCCGGAA-p-Act-p-Qut-p-Qut: oligonucleotide 5′-TTCCGGAA-3′ carrying trimer Act-p-Qut-p-Qut at the 3′-end (DNA TTCCGGAA-{code p-Act-code p-Qut-code p-Qut}; not fully specified; cysteine pairing not given here; reading uncertain; also: DNA oligonucleotide with 3'-Act-p-Qut-p-Qut trimer)”, in data set [1], the “Emission (nm)” value is listed as 436 nm and the “Excitation (nm)” value came out at 352 nm. Also, in the data set with duplex structure of DNA, the “Tm(° C.)” value is 44 °C and the “ΔTm (° C.)” value is “+9 °C”.

“TTCCGGAA-p-Act-p-Qut-p-Nct: oligonucleotide 5′-TTCCGGAA-3′ carrying trimer Act-p-Qut-p-Nct at the 3′-end (DNA TTCCGGAA-{code p-Act-code p-Qut-code p-Nct}; not fully specified; cysteine pairing not given here; reading uncertain; also: DNA oligonucleotide with 3'-Act-p-Qut-p-Nct trimer)”: in the data set on duplex structure of DNA, the “Tm(° C.)” value was 60 °C and the “ΔTm (° C.)” value is “+25 °C”.

As to “TTCCGGAA-p-Act-p-Qut: oligonucleotide 5′-TTCCGGAA-3′ carrying dimer Act-p-Qut at the 3′-end (DNA TTCCGGAA-{code p-Act-code p-Qut}; not fully specified; cysteine pairing not given here; reading uncertain; also: DNA oligonucleotide with 3'-Act-p-Qut dimer)”, in data set [1], the “Emission (nm)” value is on record as 485 nm and the “Excitation (nm)” value was 351 nm. In the data set with duplex structure of DNA, the “Tm(° C.)” value amounted to 44 °C and the “ΔTm (° C.)” value was “+9 °C”.

Take “TTCCGGAA-p-Qut: oligonucleotide 5′-TTCCGGAA-3′ carrying fluorophore Qut at the 3′-end (DNA TTCCGGAA-{code p-Qut}; not fully specified; cysteine pairing not given here; reading uncertain; also: DNA oligonucleotide with 3'-phosphate-linked Qut)”: in data set [1], the “Emission (nm)” value was 492 nm and the “Excitation (nm)” value stood at 349 nm. In addition, in the data set with duplex structure of DNA, the “Tm(° C.)” value stood at 44 °C and the “ΔTm (° C.)” value is “+9 °C”.

As for “TTCCGGAA-p-Qgt: oligonucleotide 5′-TTCCGGAA-3′ carrying fluorophore Qgt at the 3′-end (DNA TTCCGGAA-{code p-Qgt}; not fully specified; cysteine pairing not given here; reading uncertain; also: DNA oligonucleotide with 3'-phosphate-linked Qgt)”, in data set [1], the “Emission (nm)” value is 491 nm and the “Excitation (nm)” value was 350 nm. In the data set with duplex structure of DNA, the “Tm(° C.)” value is 50 °C and the “ΔTm (° C.)” value was “+15 °C”.

For “TTCCGGAA-p-Agt: oligonucleotide 5′-TTCCGGAA-3′ carrying fluorophore Agt at the 3′-end (DNA TTCCGGAA-{code p-Agt}; not fully specified; cysteine pairing not given here; reading uncertain; also: DNA oligonucleotide with 3'-phosphate-linked Agt)”, in the data set on duplex structure of DNA, the “Tm(° C.)” value is 47 °C and the “ΔTm (° C.)” value is “+12 °C”.

For “TTCCGGAA-p-Pht: oligonucleotide 5′-TTCCGGAA-3′ carrying fluorophore Pht at the 3′-end (DNA TTCCGGAA-{code p-Pht}; not fully specified; cysteine pairing not given here; reading uncertain; also: DNA oligonucleotide with 3'-phosphate-linked Pht)”, in the data set on duplex structure of DNA, the “Tm(° C.)” value turned out to be 41 °C and the “ΔTm (° C.)” value is “+6 °C”.

Take “TTCCGGAA-p-Act-p-Pht: oligonucleotide 5′-TTCCGGAA-3′ carrying dimer Act-p-Pht at the 3′-end (DNA TTCCGGAA-{code p-Act-code p-Pht}; not fully specified; cysteine pairing not given here; reading uncertain; also: DNA oligonucleotide with 3'-Act-p-Pht dimer)”: in data set [1], the “Emission (nm)” value is 440 nm and the “Excitation (nm)” value is listed as 336 nm. In the data set with duplex structure of DNA, the “Tm(° C.)” value was found to be 43 °C and the “ΔTm (° C.)” value was “+8 °C”.

Regarding “TTCCGGAA-p-Qut-p-Qut: oligonucleotide 5′-TTCCGGAA-3′ carrying dimer Qut-p-Qut at the 3′-end (DNA TTCCGGAA-{code p-Qut-code p-Qut}; not fully specified; cysteine pairing not given here; reading uncertain; also: DNA oligonucleotide with 3'-Qut-p-Qut dimer)”, in data set [1], the “Emission (nm)” value is on record as 490 nm and the “Excitation (nm)” value turned out to be 349 nm. Also, in the data set with duplex structure of DNA, the “Tm(° C.)” value is 48 °C and the “ΔTm (° C.)” value was “+13 °C”.

Regarding “TTCCGGAA-p-Act: oligonucleotide 5′-TTCCGGAA-3′ carrying fluorophore Act at the 3′-end (DNA TTCCGGAA-{code p-Act}; not fully specified; cysteine pairing not given here; reading uncertain; also: DNA oligonucleotide with 3'-phosphate-linked Act)”, in the data set on duplex structure of DNA, the “Tm(° C.)” value is 47 °C and the “ΔTm (° C.)” value is “+12 °C”.

With “TTCCGGAA-p-Nct: oligonucleotide 5′-TTCCGGAA-3′ carrying fluorophore Nct at the 3′-end (DNA TTCCGGAA-{code p-Nct}; not fully specified; cysteine pairing not given here; reading uncertain; also: DNA oligonucleotide with 3'-phosphate-linked Nct)”, in data set [1], the “Emission (nm)” value was determined as 442 nm and the “Excitation (nm)” value is listed as 267 nm. Besides, in the data set with duplex structure of DNA, the “Tm(° C.)” value turned out to be 46 °C and the “ΔTm (° C.)” value was “+11 °C”.

In the case of `NC(=O)CCCOP(=O)(O)O[C@H](CNc1c2ccccc2nc2ccccc12)COP(=O)(O)O[C@@H](CO)CNc1c2ccccc2nc2ccccc12` [Example 33, O-[(R)-3-(Acridin-9-ylamino)-1-hydroxy-propane-2-yl]-phosphate (2-1) O-{2-N-(acridine-9-ylamino)-2-oxyprop-1-yl} phosphate(2-4) 4-hydroxybutirame], in data set [2], the “Fluorescence Excitation (nm)” value is 359 nm and the “Fluorescence emission (nm)” value is recorded as 440 nm.
